Experimental findings from the supplement of paper PMC11246515 are described below.

This data set can be described thus: total protein half-life in vivo (active degradation + dilution); higher = more stable protein.
The mark [1] stands for this setting: E. coli NCM3722 delta-clpP delta-lon delta-hslV, growth: N-lim chemostat, doubling time 6 h.
Where [2] appears, read: E. coli NCM3722 delta-clpP, growth: N-lim chemostat, doubling time 6 h.
Setting [3] is: E. coli NCM3722 delta-hslV, growth: N-lim chemostat, doubling time 6 h.
The mark [4] stands for this setting: E. coli NCM3722 delta-lon, growth: N-lim chemostat, doubling time 6 h.
Where [5] appears, read: E. coli NCM3722 delta-smpB, growth: N-lim chemostat, doubling time 6 h.
Setting [6] is: wild type E. coli NCM3722, growth: C-lim chemostat, doubling time 3 h.
[7] abbreviates: wild type E. coli NCM3722, growth: C-lim chemostat, doubling time 6 h.
[8] abbreviates: wild type E. coli NCM3722, growth: C-lim chemostat, doubling time 12 h.
[9] abbreviates: wild type E. coli NCM3722, growth: N-lim chemostat, doubling time 6 h.
The mark [10] stands for this setting: wild type E. coli NCM3722, growth: N-lim chemostat, doubling time 12 h.
The mark [11] stands for this setting: wild type E. coli NCM3722, growth: P-lim chemostat, doubling time 6 h.
The mark [12] stands for this setting: wild type E. coli NCM3722, growth: P-lim chemostat, doubling time 12 h.

± gives the standard deviation of the averaged measurements. Where only a bound is given, the exact number is not on record here.

Take “MRSSAKQEELVKAFKALLKEEKFSSQGEIVAALQEQGFDNINQSKVSRMLTKFGAVRTRNAKMEMVYCLPAELGVPTTSSPLKNLVLDIDYNDAVVVIHTSPGAAQLIARLLDSLGKAEGILGTIAGDDTIFTTPANGFTVKDLYEAILELFDQEL [P0A6D0]”: the “total protein half-life in vivo” value runs as follows: under setting [1], 5.74 h; under setting [2], 5.76 ± 0.36 h; under setting [3], 5.36 ± 0.18 h; under setting [4], 6.26 h; under setting [5], 6.3 ± 1.1 h; under setting [6], 3.07 ± 0.25 h. The “total protein half-life in vivo” value under setting [7] came out at 5.2 ± 1 h; the “total protein half-life in vivo” value under setting [8] is 10.7 ± 1.8 h; the “total protein half-life in vivo” value under setting [9] was 5.26 ± 0.67 h; the “total protein half-life in vivo” value under setting [10] worked out at 10.5 h; the “total protein half-life in vivo” value under setting [11] amounted to 4.85 ± 0.56 h; the “total protein half-life in vivo” value under setting [12] was found to be 11.8 ± 0.96 h.
On to “MEKTTTQELLAQAEKICAQRNVRLTPQRLEVLRLMSLQDGAISAYDLLDLLREAEPQAKPPTVYRALDFLLEQGFVHKVESTNSYVLCHLFDQPTHTSAMFICDRCGAVKEECAEGVEDIMHTLAAKMGFALRHNVIEAHGLCAACVEVEACRHPEQCQHDHSVQVKKKPR [P0AC51]”, for which the “total protein half-life in vivo” value runs as follows: under setting [1], 5.27 ± 0.88 h; under setting [2], 5.4504 ± 0.0027 h; under setting [3], 5.09 h; under setting [4], 5.63 ± 0.19 h; under setting [5], 4.2 ± 0.9 h; under setting [7], 3.79 h. The “total protein half-life in vivo” value came to 9 ± 1.9 h under setting [8]; 5.15 h under setting [9]; 6.28 h under setting [10]; 3.86 ± 0.18 h under setting [11]; 8.62 ± 0.42 h under setting [12].
On to “MAEHRGGSGNFAEDREKASDAGRKGGQHSGGNFKNDPQRASEAGKKGGQQSGGNKSGKS”, for which the “total protein half-life in vivo” value by setting is: under setting [1], 0.599 h; under setting [4], 1.5 h; under setting [9], 1.49 h; under setting [10], 1.92 ± 0.038 h.
Take “MRAKLLGIVLTTPIAISSFASTETLSFTPDNINADISLGTLSGKTKERVYLAEEGGRKVSQLDWKFNNAAIIKGAINWDLMPQISIGAAGWTTLGSRGGNMVDQDWMDSSNPGTWTDESRHPDTQLNYANEFDLNIKGWLLNEPNYRLGLMAGYQESRYSFTARGGSYIYSSEEGFRDDIGSFPNGERAIGYKQRFKMPYIGLTGSYRYEDFELGGTFKYSGWVESSDNDEHYDPGKRITYRSKVKDQNYYSVAVNAGYYVTPNAKVYVEGAWNRVTNKKGNTSLYDHNNNTSDYSKNGAGIENYNFITTAGLKYTF”: the “total protein half-life in vivo” value under setting [2] stood at 6.57 ± 0.46 h; the “total protein half-life in vivo” value under setting [3] stood at 6.305 ± 0.013 h; the “total protein half-life in vivo” value under setting [4] stood at 6.712 ± 0.042 h; the “total protein half-life in vivo” value under setting [5] worked out at 5.81 ± 0.35 h; the “total protein half-life in vivo” value under setting [6] worked out at 3.21 ± 0.091 h; the “total protein half-life in vivo” value under setting [7] stood at 6.17 ± 0.45 h. The “total protein half-life in vivo” value is 11.5 ± 0.18 h under setting [8]; 6.05 ± 0.22 h under setting [9]; 12.2 ± 2.6 h under setting [10]; 6.51 ± 0.55 h under setting [11]; 13.498 ± 0.0072 h under setting [12].
As to “MAMVEMQTTAALAESRRKMQARRRLKNRIALTLSMATMAFGLFWLIWILMSTITRGIDGMSLALFTEMTPPPNTEGGGLANALAGSGLLILWATVFGTPLGIMAGIYLAEYGRKSWLAEVIRFINDILLSAPSIVVGLFVYTIVVAQMEHFSGWAGVIALALLQVPIVIRTTENMLKLVPYSLREAAYALGTPKWKMISAITLKASVSGIMTGILLAIARIAGETAPLLFTALSNQFWSTDMMQPIANLPVTIFKFAMSPFAEWQQLAWAGVLIITLCVLLLNILARVVFAKNKHG”, the “total protein half-life in vivo” value was 6.78 ± 1.7 h under setting [1]; 5.74 ± 0.15 h under setting [2]; greater than 8 h under setting [3]; 4.84 h under setting [4]; 4.97 ± 0.05 h under setting [5]; 3.37 h under setting [6]. The “total protein half-life in vivo” value was found to be 5.11 ± 0.51 h under setting [7]; 12.1 ± 1.3 h under setting [8]; 5.15 ± 0.12 h under setting [9]; 10.6 ± 2 h under setting [10]; 4.95 ± 0.35 h under setting [11]; 9.13 ± 0.56 h under setting [12].
On to “MTDKTSLSYKDAGVDIDAGNALVGRIKGVVKKTRRPEVMGGLGGFGALCALPQKYREPVLVSGTDGVGTKLRLAMDLKRHDTIGIDLVAMCVNDLVVQGAEPLFFLDYYATGKLDVDTASAVISGIAEGCLQSGCSLVGGETAEMPGMYHGEDYDVAGFCVGVVEKSEIIDGSKVSDGDVLIALGSSGPHSNGYSLVRKILEVSGCDPQTTELDGKPLADHLLAPTRIYVKSVLELIEKVDVHAIAHLTGGGFWENIPRVLPDNTQAVIDESSWQWPEVFNWLQTAGNVEHHEMYRTFNCGVGMIIALPAPEVDKALALLNANGENAWKIGIIKASDSEQRVVIE”, for which the “total protein half-life in vivo” value is, setting by setting: under setting [1], 4.99 ± 0.091 h; under setting [2], 4.62 ± 1 h; under setting [3], 4.47 ± 0.064 h; under setting [4], 5.23 ± 0.1 h; under setting [5], 4.258 ± 0.021 h; under setting [6], 2.94 ± 0.24 h. The “total protein half-life in vivo” value stood at 5.66 ± 0.063 h under setting [7]; 11.1 ± 0.42 h under setting [8]; 4.53 ± 0.17 h under setting [9]; 7.47 ± 0.71 h under setting [10]; 4.7 ± 0.29 h under setting [11]; 9.07 ± 2 h under setting [12].
Take “MILLIDNYDSFTWNLYQYFCELGADVLVKRNDALTLADIDALKPQKIVISPGPCTPDEAGISLDVIRHYAGRLPILGVCLGHQAMAQAFGGKVVRAAKVMHGKTSPITHNGEGVFRGLANPLTVTRYHSLVVEPDSLPACFDVTAWSETREIMGIRHRQWDLEGVQFHPESILSEQGHQLLANFLHR”: the “total protein half-life in vivo” value runs as follows: under setting [1], 5.21 ± 0.68 h; under setting [2], 5.02 h; under setting [3], 3.72 ± 1.2 h; under setting [4], 4.94 ± 0.68 h; under setting [5], 4.35 ± 0.22 h; under setting [6], 3.31 ± 0.049 h. Besides, the “total protein half-life in vivo” value by setting is: under setting [7], 5.88 ± 0.4 h; under setting [8], 10 h; under setting [10], 8.41 ± 0.11 h; under setting [11], 6.18 ± 0.066 h; under setting [12], 12.9 ± 0.99 h.
Consider “MSQLCPCGSAVEYSLCCHPYVSGEKVAPDPEHLMRSRYCAFVMQDADYLIKTWHPSCGAAALRAELMAGFAHTEWLGLTVFEHCWQDADNIGFVSFVARFTEGGKTGAIIERSRFLKENGQWYYIDGTRPQFGRNDPCPCGSGKKFKKCCGQ”, for which the “total protein half-life in vivo” value reads like this: under setting [1], 5.73 ± 0.5 h; under setting [3], greater than 8 h; under setting [5], 5.47 h; under setting [7], 6.31 h; under setting [9], 5.43 ± 0.68 h; under setting [10], 8.52 ± 0.57 h. Further, the “total protein half-life in vivo” value under setting [11] was 5.3 ± 0.3 h.
Take “MKKIDAIIKPFKLDDVREALAEVGITGMTVTEVKGFGRQKGHTELYRGAEYMVDFLPKVKIEIVVPDDIVDTCVDTIIRTAQTGKIGDGKIFVFDVARVIRIRTGEEDDAAI [P0A9Z1]”: the “total protein half-life in vivo” value under setting [1] came out at 5.76 ± 0.58 h; the “total protein half-life in vivo” value under setting [2] is 5.59 ± 1.1 h; the “total protein half-life in vivo” value under setting [3] worked out at 5.06 ± 0.23 h; the “total protein half-life in vivo” value under setting [4] worked out at 5.35 ± 0.13 h; the “total protein half-life in vivo” value under setting [5] amounted to 4.77 ± 0.36 h; the “total protein half-life in vivo” value under setting [6] amounted to 3.3 ± 0.45 h. The “total protein half-life in vivo” value under setting [7] stood at 5.57 ± 0.17 h; the “total protein half-life in vivo” value under setting [8] amounted to 10.5 ± 1.1 h; the “total protein half-life in vivo” value under setting [9] was determined as 4.68 ± 0.49 h; the “total protein half-life in vivo” value under setting [10] was found to be 8.91 ± 0.19 h; the “total protein half-life in vivo” value under setting [11] is 5.77 ± 0.31 h; the “total protein half-life in vivo” value under setting [12] is 11.6 ± 0.54 h.
